Laboratory results reported in patent US20060257938A1, “Method of screening for drugs that block ligand binding to a lipid binding protein” (priority 2005, published 2006).

Assays:
Format in all cases: binding
[1] = Probe fluorescence ratio response to linoleic acid relative to ADIFAB2; details: response relative to ADIFAB2
Procedure, shortened: (§1)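 Fluorescently labeled rat intestinal FABP variants were read at two emission wavelengths, near the unbound maximum (about 420 to 480 nm) and the FFA-bound maximum (about 495 to 580 nm). R = Fλ1/Fλ2 after subtracting probe-free intensity; ΔR = R+agent − R0, normalized to ADIFAB2 (rI-FABP-L72A).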

[2] = Probe fluorescence ratio response to palmitic acid relative to ADIFAB2; details: response relative to ADIFAB2
Procedure, shortened: as §1

[3] = Probe fluorescence ratio response to linolenic acid relative to ADIFAB2; details: response relative to ADIFAB2
Procedure, shortened: as §1

[4] = Probe fluorescence ratio response to oleic acid relative to ADIFAB2; details: response relative to ADIFAB2
Procedure, shortened: as §1

[5] = Probe fluorescence ratio response to arachidonic acid relative to ADIFAB2; details: arachidonic acid; response relative to ADIFAB2
Procedure, shortened: as §1

B1: 78V, 72A (protein, listed as Rattus norvegicus)
chain: AFDGTWKVDRNENYEKFMEKMGINVVKRKLGAHDNLKLTITQEGNKFTVKESSNFRNIDVVFELGVDFAYSAADGTEVTGTWTMEGNKLVGKFKRVDNGKELIAVREISGNELIQTYTYEGVEAKRIFKKE
modifications: PEPTIDE (1)...(131) wild-type rat intestinal fatty acid binding protein
- DR/DR LA [1]: 0.865
- DR/DR PA [2]: 0.615
- DR/DR LNA [3]: 0.798
- DR/DR OA [4]: 0.864
- DR/DR AA [5]: 1.093

B2: 23Y, 72A (protein, listed as Rattus norvegicus)
chain: AFDGTWKVDRNENYEKFMEKMGYNVVKRKLGAHDNLKLTITQEGNKFTVKESSNFRNIDVVFELGVDFAYSAADGTELTGTWTMEGNKLVGKFKRVDNGKELIAVREISGNELIQTYTYEGVEAKRIFKKE
modifications: PEPTIDE (1)...(131) wild-type rat intestinal fatty acid binding protein
- DR/DR LA [1]: 0.442
- DR/DR PA [2]: 0.281
- DR/DR LNA [3]: 0.443
- DR/DR OA [4]: 0.412
- DR/DR AA [5]: 0.492

B3: 14L 72G (protein, listed as Rattus norvegicus)
chain: AFDGTWKVDRNENLEKFMEKMGINVVKRKLGAHDNLKLTITQEGNKFTVKESSNFRNIDVVFELGVDFAYSGADGTELTGTWTMEGNKLVGKFKRVDNGKELIAVREISGNELIQTYTYEGVEAKRIFKKE
modifications: PEPTIDE (1)...(131) wild-type rat intestinal fatty acid binding protein
- DR/DR LA [1]: 0.817
- DR/DR PA [2]: 0.334
- DR/DR LNA [3]: 0.886
- DR/DR OA [4]: 0.730
- DR/DR AA [5]: 0.873

B4: 21V, 72A (protein, listed as Rattus norvegicus)
chain: AFDGTWKVDRNENYEKFMEKVGINVVKRKLGAHDNLKLTITQEGNKFTVKESSNFRNIDVVFELGVDFAYSAADGTELTGTWTMEGNKLVGKFKRVDNGKELIAVREISGNELIQTYTYEGVEAKRIFKKE
modifications: PEPTIDE (1)...(131) wild-type rat intestinal fatty acid binding protein
- DR/DR LA [1]: 0.871
- DR/DR PA [2]: 0.462
- DR/DR LNA [3]: 0.889
- DR/DR OA [4]: 0.739
- DR/DR AA [5]: 0.939

B5: 55V, 72A (protein, listed as Rattus norvegicus)
chain: AFDGTWKVDRNENYEKFMEKMGINVVKRKLGAHDNLKLTITQEGNKFTVKESSNVRNIDVVFELGVDFAYSAADGTELTGTWTMEGNKLVGKFKRVDNGKELIAVREISGNELIQTYTYEGVEAKRIFKKE
modifications: PEPTIDE (1)...(131) wild-type rat intestinal fatty acid binding protein
- DR/DR LA [1]: 0.432
- DR/DR PA [2]: 0.374
- DR/DR LNA [3]: 0.477
- DR/DR OA [4]: 0.468
- DR/DR AA [5]: 0.581

B6: 82V, 72A (protein, listed as Rattus norvegicus)
chain: AFDGTWKVDRNENYEKFMEKMGINVVKRKLGAHDNLKLTITQEGNKFTVKESSNFRNIDVVFELGVDFAYSAADGTELTGTVTMEGNKLVGKFKRVDNGKELIAVREISGNELIQTYTYEGVEAKRIFKKE
modifications: PEPTIDE (1)...(131) wild-type rat intestinal fatty acid binding protein
- DR/DR LA [1]: 0.519
- DR/DR PA [2]: 0.345
- DR/DR LNA [3]: 0.456
- DR/DR OA [4]: 0.461
- DR/DR AA [5]: 0.757

B7: 104F, 72A (protein, listed as Rattus norvegicus)
chain: AFDGTWKVDRNENYEKFMEKMGINVVKRKLGAHDNLKLTITQEGNKFTVKESSNFRNIDVVFELGVDFAYSAADGTELTGTWTMEGNKLVGKFKRVDNGKELIFVREISGNELIQTYTYEGVEAKRIFKKE
modifications: PEPTIDE (1)...(131) wild-type rat intestinal fatty acid binding protein
- DR/DR LA [1]: 0.486
- DR/DR PA [2]: 0.263
- DR/DR LNA [3]: 0.436
- DR/DR OA [4]: 0.462
- DR/DR AA [5]: 0.686

B8: 55Q, 72A (protein, listed as Rattus norvegicus)
chain: AFDGTWKVDRNENYEKFMEKMGINVVKRKLGAHDNLKLTITQEGNKFTVKESSNQRNIDVVFELGVDFAYSAADGTELTGTWTMEGNKLVGKFKRVDNGKELIAVREISGNELIQTYTYEGVEAKRIFKKE
modifications: PEPTIDE (1)...(131) wild-type rat intestinal fatty acid binding protein
- DR/DR LA [1]: 0.474
- DR/DR PA [2]: 0.428
- DR/DR LNA [3]: 0.492
- DR/DR OA [4]: 0.536
- DR/DR AA [5]: 0.600

B9: 104G, 72A (protein, listed as Rattus norvegicus)
chain: AFDGTWKVDRNENYEKFMEKMGINVVKRKLGAHDNLKLTITQEGNKFTVKESSNFRNIDVVFELGVDFAYSAADGTELTGTWTMEGNKLVGKFKRVDNGKELIGVREISGNELIQTYTYEGVEAKRIFKKE
modifications: PEPTIDE (1)...(131) wild-type rat intestinal fatty acid binding protein
- DR/DR LA [1]: 0.665
- DR/DR PA [2]: 0.650
- DR/DR LNA [3]: 0.687
- DR/DR OA [4]: 0.691
- DR/DR AA [5]: 0.866

B10: 55I, 72A (protein, listed as Rattus norvegicus)
chain: AFDGTWKVDRNENYEKFMEKMGINVVKRKLGAHDNLKLTITQEGNKFTVKESSNIRNIDVVFELGVDFAYSAADGTELTGTWTMEGNKLVGKFKRVDNGKELIAVREISGNELIQTYTYEGVEAKRIFKKE
modifications: PEPTIDE (1)...(131) wild-type rat intestinal fatty acid binding protein
- DR/DR LA [1]: 0.834
- DR/DR PA [2]: 0.774
- DR/DR LNA [3]: 0.885
- DR/DR OA [4]: 0.901
- DR/DR AA [5]: 1.079

B11: 38I 72G (protein, listed as Rattus norvegicus)
chain: AFDGTWKVDRNENYEKFMEKMGINVVKRKLGAHDNLKITITQEGNKFTVKESSNFRNIDVVFELGVDFAYSGADGTELTGTWTMEGNKLVGKFKRVDNGKELIAVREISGNELIQTYTYEGVEAKRIFKKE
modifications: PEPTIDE (1)...(131) wild-type rat intestinal fatty acid binding protein
- DR/DR LA [1]: 0.772
- DR/DR PA [2]: 0.419
- DR/DR LNA [3]: 0.701
- DR/DR OA [4]: 0.861
- DR/DR AA [5]: 0.964

B12: 11M, 72A (protein, listed as Rattus norvegicus)
chain: AFDGTWKVDRMENYEKFMEKMGINVVKRKLGAHDNLKLTITQEGNKFTVKESSNFRNIDVVFELGVDFAYSAADGTELTGTWTMEGNKLVGKFKRVDNGKELIAVREISGNELIQTYTYEGVEAKRIFKKE
modifications: PEPTIDE (1)...(131) wild-type rat intestinal fatty acid binding protein
- DR/DR LA [1]: 0.576
- DR/DR PA [2]: 0.543
- DR/DR LNA [3]: 0.651
- DR/DR OA [4]: 0.463
- DR/DR AA [5]: 0.697

B13: 115H, 72A (protein, listed as Rattus norvegicus)
chain: AFDGTWKVDRNENYEKFMEKMGINVVKRKLGAHDNLKLTITQEGNKFTVKESSNFRNIDVVFELGVDFAYSAADGTELTGTWTMEGNKLVGKFKRVDNGKELIAVREISGNELIHTYTYEGVEAKRIFKKE
modifications: PEPTIDE (1)...(131) wild-type rat intestinal fatty acid binding protein
- DR/DR LA [1]: 0.741
- DR/DR PA [2]: 0.514
- DR/DR LNA [3]: 0.697
- DR/DR OA [4]: 0.675
- DR/DR AA [5]: 0.891

B14: 11V, 72A (protein, listed as Rattus norvegicus)
chain: AFDGTWKVDRVENYEKFMEKMGINVVKRKLGAHDNLKLTITQEGNKFTVKESSNFRNIDVVFELGVDFAYSAADGTELTGTWTMEGNKLVGKFKRVDNGKELIAVREISGNELIQTYTYEGVEAKRIFKKE
modifications: PEPTIDE (1)...(131) wild-type rat intestinal fatty acid binding protein
- DR/DR LA [1]: 0.825
- DR/DR PA [2]: 0.732
- DR/DR LNA [3]: 0.763
- DR/DR OA [4]: 0.552
- DR/DR AA [5]: 0.932

B15: 115N, 72A (protein, listed as Rattus norvegicus)
chain: AFDGTWKVDRNENYEKFMEKMGINVVKRKLGAHDNLKLTITQEGNKFTVKESSNFRNIDVVFELGVDFAYSAADGTELTGTWTMEGNKLVGKFKRVDNGKELIAVREISGNELINTYTYEGVEAKRIFKKE
modifications: PEPTIDE (1)...(131) wild-type rat intestinal fatty acid binding protein
- DR/DR LA [1]: 0.777
- DR/DR PA [2]: 0.558
- DR/DR LNA [3]: 0.726
- DR/DR OA [4]: 0.711
- DR/DR AA [5]: 0.918
